According to US20100280227A1 (Genentech, published 2010):

T1: mouse BR3 extracellular domain (mouse, UniProt Q9D8D0 1-64)
T1 construct: also called mBR3-ECD; mBR-ECD
T1 sequence: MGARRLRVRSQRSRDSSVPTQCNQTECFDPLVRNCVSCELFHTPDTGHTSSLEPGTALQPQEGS


Experiments:
[1] = biological target: T2, human BR3 extracellular domain (human, UniProt Q96RJ3 1-61); test: phage competition ELISA
T2 construct: biotinylated where used as tracer; also called hBR3-ECD; BR3-ECD

[2] = biological target: T1, mouse BR3 extracellular domain; test: phage competition ELISA

Row | Binder | IC50 [1] | IC50 [2]
1 | 16 (Fab, V domains shown, also called V3-16) VH: EVQLVESGGGLVQPGGSLRLSCAASGFSISSNSIHWVRQAPGKGLEWVAWITPTHGSTDYADSVKGRFTISADTSKNTAYLQMNSLRAEDTAVYYCARRVCYNRLGVCAGGMDYWGQGTLVTVSS VL: DIQMTQSPSSLSASVGDRVTITCRASQDVSTAVAWYQQKPGKAPKLLIYSASFLYSGVPSRFSGSGSGTDFTLTISSLQPEDFATYYCQQSRITPPTFGQGTKVEIKR | 1.7 nM | 16.8 nM
2 | 41 (Fab, V domains shown, also called V3-41; clone 41) VH: EVQLVESGGGLVQPGGSLRLSCAASGFSIRNNSIHWVRQAPGKGLEWVAWVLPSNGVTDYADSVKGRFTISADTSKNTAYLQMNSLRAEDTAVYYCARRVCYNRLGVCAGGMDYWGQGTLVTVSS VL: DIQMTQSPSSLSASVGDRVTITCRASQDVSTAVAWYQQKPGKAPKLLIYSASFLYSGVPSRFSGSGSGTDFTLTISSLQPEDFATYYCQQSGISPPTFGQGTKVEIKR | 0.4 nM | 0.6 nM
3 | 24 (Fab, V domains shown, also called V3-24) VH: EVQLVESGGGLVQPGGSLRLSCAASGFSIRSISIHWVRQAPGKGLEWVAWITPFNGTTDYADSVKGRFTISADTSKNTAYLQMNSLRAEDTAVYYCARRVCYNRLGVCAGGMDYWGQGTLVTVSS VL: DIQMTQSPSSLSASVGDRVTITCRASQDVSTAVAWYQQKPGKAPKLLIYSASFLYSGVPSRFSGSGSGTDFTLTISSLQPEDFATYYCQQSLITPPTFGQGTKVEIKR | 0.6 nM | 23 nM
4 | 19 (Fab, V domains shown, also called V3-19) VH: EVQLVESGGGLVQPGGSLRLSCAASGFSIARSSIHWVRQAPGKGLEWVAWILPSAGSTDYADSVKGRFTISADTSKNTAYLQMNSLRAEDTAVYYCARRVCYNRLGVCAGGMDYWGQGTLVTVSS VL: DIQMTQSPSSLSASVGDRVTITCRASQDVSTAVAWYQQKPGKAPKLLIYSASFLYSGVPSRFSGSGSGTDFTLTISSLQPEDFATYYCQQSRITPPTFGQGTKVEIKR | 1.3 nM | 1.8 nM

More lines, now with the values ahead:

Row | IC50 [1] | IC50 [2] | Binder
5 | 9.4 nM | 1.4 nM | 27 (Fab, V domains shown, also called V3-27) VH: EVQLVESGGGLVQPGGSLRLSCAASGFTISSNSIHWVRQAPGKGLEWVAWITPSDGNTDYADSVKGRFTISADTSKNTAYLQMNSLRAEDTAVYYCARRVCYNHLGVCAGGMDYWGQGTLVTVSS VL: DIQMTQSPSSLSASVGDRVTITCRASQDVSTAVAWYQQKPGKAPKLLIYSASFLYSGVPSRFSGSGSGTDFTLTISSLQPEDFATYYCQQSRMSPPTFGQGTKVEIKR
6 | 0.8 nM | 21.9 nM | 35 (Fab, V domains shown, also called V3-35) VH: EVQLVESGGGLVQPGGSLRLSCAASGFTISSNSIHWVRQAPGKGLEWVAWVTPGVGSTDYADSVKGRFTISADTSKNTAYLQMNSLRAEDTAVYYCARRVCYNRLGVCAGGMDYWGQGTLVTVSS VL: DIQMTQSPSSLSASVGDRVTITCRASQDVSTAVAWYQQKPGKAPKLLIYSASFLYSGVPSRFSGSGSGTDFTLTISSLQPEDFATYYCQQSLMTPPTFGQGTKVEIKR
7 | 0.3 nM | 6.4 nM | 34 (Fab, V domains shown, also called V3-34) VH: EVQLVESGGGLVQPGGSLRLSCAASGFSISNHSIHWVRQAPGKGLEWVAWVTPSYGITDYADSVKGRFTISADTSKNTAYLQMNSLRAEDTAVYYCARRVCYNRLGVCAGGMDYWGQGTLVTVSS VL: DIQMTQSPSSLSASVGDRVTITCRASQDVSTAVAWYQQKPGKAPKLLIYSASFLYSGVPSRFSGSGSGTDFTLTISSLQPEDFATYYCQQSRTTPPTFGQGTKVEIKR
8 | 0.7 nM | 1.3 nM | 37 (Fab, V domains shown, also called V3-37) VH: EVQLVESGGGLVQPGGSLRLSCAASGFSISRRSIHWVRQAPGKGLEWVAWITPLYGSTHYADSVKGRFTISADTSKNTAYLQMNSLRAEDTAVYYCARRVCYNRLGVCAGGMDYWGQGTLVTVSS VL: DIQMTQSPSSLSASVGDRVTITCRASQDVSTAVAWYQQKPGKAPKLLIYSASFLYSGVPSRFSGSGSGTDFTLTISSLQPEDFATYYCQQSRISPPTFGQGTKVEIKR
